# In US20110165161A1, “ANTI-EPCAM ANTIBODIES THAT INDUCE APOPTOSIS OF CANCER CELLS AND METHODS USING SAME” (priority 2009, published 2011):
# Marks after values point to notes of the source that are not given here.
# B1: 12H8: murine anti-human EpCAM monoclonal antibody (IgG2a, K), hybridoma m342-12H8.3; VH SEQ ID NO:3, VL SEQ ID NO:5 (antibody, listed as Mus musculus, V domains shown)
# VH: QIQLVQSGPELKKPGETVKISCKTSGYTFTDYSMHWVNQAPGKGLKWMGWINTETGEPTYTDDFKGRFAFSLETSASTAYLQINNLKNEDTATYFCARTAVYWGQGTTLTVSS
# VL: DIQMTQSPSSLSASLGERVSLTCRASQEISGSLSWLQQKPDGTIKRLIYAASTLNSGVPKRFSGRRSGSDYSLTISSLESEDFVDYYCLQYSSYPWSFGGGTKLEIKR
# Key:
# CHO parental cells = experiment: FACS binding of anti-EpCAM antibodies to CHO parental cells; parameters: species or system Chinese hamster; conditions: antibody 0.1 μg/ml; HPS at 300x dilution
# Description: 1×10^5 CHO/EpCAM or CHO parental cells were seeded in each well of a v-bottomed 96-well plate and incubated with purified anti-EpCAM antibodies or mouse IgG control antibody 9E10 at concentration of 0.1 μg/ml. A 300× dilution of human cell hyper-immune serum (HPS 300×) was used as binding positive control for both cell lines here. After 1 hr incubation at 4° C., cells were washed twice with 200 μl FACS buffer (1×PBS containing 1% FBS), stained with 100 μl of 1 μg/ml goat-anti-mouse IgG-PE (Southern Biotech, Cat. No. 1032-09) in FACS buffer and then incubated at 4° C. for 30 min. Cells were washed thrice with FACS buffer and analyzed by flow cytometry (BD LSR, BD Life Sciences).
# [1] = system: Breast cancer T-47D cells; experiment: Antibody cytotoxicity assay (Annexin V + PI), T-47D; type: cell-based; conditions: 1, 3 and 10 μg/ml, overnight
# Description: (§1) After a 17-20 hr incubation at 37° C., cells were stained with 0.3 μl of FITC-conjugated Annexin V (Strong Biotech Corp. Cat. No. AVK250) in 50 μl Annexin V binding buffer (Strong Biotech Corp. Cat. No. AVK250) at RT for 20 min. After wash, the cells were then stained with 0.3 μl of propidium iodide in 200 μl Annexin V binding buffer. Annexin V and Propidium Iodide were used as a joint indicator for cell death. The data were acquired with BD FACSCalibur based on an acquisition of 3,000-5,000 cells and analyzed with the Cell Quest software. The combined percentages of the Annexin V+/PI+, Annexin V+/PI− and Annexin V−/PI+populations were considered as dead cells.
# [2] = system: Colorectal cancer DLD-1 cells; experiment: Antibody cytotoxicity assay (Annexin V + PI), DLD-1; type: cell-based; conditions: 1, 3 and 10 μg/ml, overnight
# Description: as §1
# [3] = system: Gastric cancer NCI-N87 cells; experiment: Antibody cytotoxicity assay (Annexin V + PI), NCI-N87; type: cell-based; conditions: 1, 3 and 10 μg/ml, overnight
# Description: as §1
# [4] = system: Lung cancer NCI-H520 cells; experiment: Antibody cytotoxicity assay (Annexin V + PI), NCI-H520; type: cell-based; conditions: 1, 3 and 10 μg/ml, overnight
# Description: as §1
# [5] = system: Prostate cancer LNCaP cells; experiment: Antibody cytotoxicity assay (Annexin V + PI), LNCaP; type: cell-based; conditions: 1, 3 and 10 μg/ml, overnight
# Description: as §1
# [6] = system: Pharynx cancer FaDu cells; experiment: Antibody cytotoxicity assay (Annexin V + PI), FaDu; type: cell-based; conditions: 1, 3 and 10 μg/ml, overnight
# Description: as §1
# [7] = system: Ovarian cancer NIH:OVCAR-3 cells; experiment: Antibody cytotoxicity assay (Annexin V + PI), NIH:OVCAR-3; type: cell-based; conditions: 1, 3 and 10 μg/ml, overnight
# Description: as §1
# [8] = system: NCI-H358 lung cancer cells; experiment: Cell death in NCI-H358 lung cancer cells (Annexin V + PI); type: cell-based, human; conditions: mean of 5 experiments; mAb 10 μg/ml; 17 hr
# Description: (§2) 5×10^4 NCI-H358 cells were seeded to each well of a 96-well plate, and then 10 μg/ml of anti-EpCAM or control (9E10) mAbs diluted in the medium was added into the cells. After a 17-hr incubation at 37° C., the cells were stained with 0.3 μl of FITC-conjugated Annexin V (Strong Biotech Corp. Cat. No. AVK250) in 50 μl Annexin V binding buffer (Strong Biotech Corp. Cat. No. AVK250) at RT for 20 min. After wash, the cells were then stained with 0.3 μl of propidium iodide in 200 μl Annexin V binding buffer. Annexin V and Propidium Iodide were used as a joint indicator for measuring cell death. The data were acquired with BD FACSCalibur based on an acquisition of 3,000-5,000 cells and analyzed with the Cell Quest software. The combined percentages of the Annexin V+/PI+, Annexin V+/PI− and Annexin V−/PI+populations were considered as dead cells.
# [9] = system: COLO 205 colon cancer cells; experiment: Cytotoxicity of anti-EpCAM antibodies in combination with oxaliplatin in COLO 205; type: cell-based, human; conditions: 24 hr
# Description: as §2, with “Oxaliplatin, combined with infusional administration of 2 other chemotherapy drugs, 5-fluorouracil/leucovorin (5-FU/LV), is now considered as one of the as first-line treatments for people with advanced carcinoma of the colon or rectum (André et al. (2004) N Engl J Med 350(23):2343-2351). To test the cytotoxicity of anti-EpCAM antibodies in the presence of oxaliplatin, 1×10^5 COLO 205 cells” for “5×10^4 NCI-H358 cells”, “then 0.03, 0.3 and 3” for “then 10”, “mAbs in combination with oxaliplatin at concentration of 0, 0.01, 0.1, and 1 μg/ml” for “mAbs”, “medium were” for “medium was”, “a 24-hr” for “a 17-hr”
# DLD-1 xenograft = experiment: Colorectal cancer DLD-1 xenograft in SCID mice; type: in vivo; conditions: for tumor volume Mean ± SD: 12.5 mg/kg i.p.
# Description: (§3) Whether the in vitro apoptosis-inducing activity of anti-EpCAM antibodies has any in vivo biological relevance was studied in the xenograft model. […] 5×10^6 DLD-1 or 3×10^6 NCI-H358 cells were implanted subcutaneously into the hind flank region of SCID mice (6-7 weeks) on day 0. Treatment by intraperitoneal injection with antibodies at 12.5 mg/kg for DLD-1 or 30 mg/kg for NCI-H358 in 0.1 ml PBS started on day 1 after tumor-cell inoculation and was repeated at days 4, 8, 11, 15, 18, 22 and 25. As control, 9E10 (an mouse anti-myc antibody) at the same dose were used. Five or six mice were used in each group of the experiment. Tumor growth was assessed based on twice-weekly measurement of tumor volume (mm^3) by calipers and the tumor size was calculated using the formula: π/6×larger diameter×(smaller diameter)^2 (Kievit E, Cancer Research, 60:6649-55). Statistical analysis of tumor growth was performed using the Student's t-test.
# NCI-H358 xenograft = experiment: Lung cancer NCI-H358 xenograft in SCID mice; type: in vivo; conditions: for tumor volume Mean ± SD: 30 mg/kg i.p.
# Description: as §3
molecule,measurement,setting,value
B1,"Binding (FACS, Mean fluorescence intensity (MFI)) CHO",CHO parental cells,5
same,Induction of cell death (in words),[1],substantial cell death
same,Induction of cell death (in words),[2],substantial cell death
same,Induction of cell death (in words),[3],substantial cell death
same,Induction of cell death (in words),[4],substantial cell death
same,Induction of cell death (in words),[5],substantial cell death
same,Induction of cell death (in words),[6],substantial cell death
same,Induction of cell death (in words),[7],substantial cell death
same,"% of Annexin V + PI staining (untreated background subtracted), Mean ± SEM",[8],33.6 ± 2.1%
same,% of Annexin V + PI staining (untreated background subtracted),[9]; mAb 0.03 μg/ml + oxaliplatin 0.01 μg/ml,10%
same,% of Annexin V + PI staining (untreated background subtracted),[9]; mAb 0.03 μg/ml + oxaliplatin 0.1 μg/ml,9%
same,% of Annexin V + PI staining (untreated background subtracted),[9]; mAb 0.03 μg/ml + oxaliplatin 1 μg/ml,14%
same,% of Annexin V + PI staining (untreated background subtracted),"[9]; mAb 0.03 μg/ml, oxaliplatin 0 μg/ml",9%
same,% of Annexin V + PI staining (untreated background subtracted),[9]; mAb 0.3 μg/ml + oxaliplatin 1 μg/ml,35%
same,% of Annexin V + PI staining (untreated background subtracted),"[9]; mAb 0.3 μg/ml, oxaliplatin 0 μg/ml",20%
same,% of Annexin V + PI staining (untreated background subtracted),[9]; mAb 3 μg/ml + oxaliplatin 0.01 μg/ml,22%
same,% of Annexin V + PI staining (untreated background subtracted),[9]; mAb 3 μg/ml + oxaliplatin 0.1 μg/ml,26%
same,% of Annexin V + PI staining (untreated background subtracted),[9]; mAb 3 μg/ml + oxaliplatin 1 μg/ml,38%
same,% of Annexin V + PI staining (untreated background subtracted),"[9]; mAb 3 μg/ml, oxaliplatin 0 μg/ml",17%
same,Inhibition of tumor growth (in words),DLD-1 xenograft; colorectal (DLD-1) xenograft,efficiently inhibited
same,tumor volume Mean ± SD,DLD-1 xenograft; d29,296 ± 154* mm^3
same,tumor volume Mean ± SD,DLD-1 xenograft; d32,396 ± 156* mm^3
same,tumor volume Mean ± SD,DLD-1 xenograft; d36,521 ± 189* mm^3
same,tumor volume Mean ± SD,DLD-1 xenograft; d39,619 ± 232* mm^3
same,tumor volume Mean ± SD,DLD-1 xenograft; d43,727 ± 270* mm^3
same,tumor volume Mean ± SD,DLD-1 xenograft; d46,839 ± 292* mm^3
same,tumor volume Mean ± SD,DLD-1 xenograft; d49,898 ± 207* mm^3
same,tumor volume Mean ± SD,NCI-H358 xenograft; d46,325 ± 132* mm^3
same,tumor volume Mean ± SD,NCI-H358 xenograft; d50,475 ± 224* mm^3
same,tumor volume Mean ± SD,NCI-H358 xenograft; d53,597 ± 304* mm^3
same,tumor volume Mean ± SD,NCI-H358 xenograft; d57,656 ± 274* mm^3
same,tumor volume Mean ± SD,NCI-H358 xenograft; d60,680 ± 279* mm^3
same,tumor volume Mean ± SD,NCI-H358 xenograft; d64,859 ± 326* mm^3
same,tumor volume Mean ± SD,NCI-H358 xenograft; d67,1076 ± 464* mm^3
same,Inhibition of tumor growth (in words),NCI-H358 xenograft; lung (NCI-H358) xenograft,efficiently inhibited
